1 substance from publication PMC5827449, “Structural analysis of group II chitinase (ChtII) catalysis completes the puzzle of chitin hydrolysis in insects” (The Journal of Biological Chemistry, 2018) can be followed below.

The test system of the series is T1, CC(=O)N[C@H]1[C@H](Oc2ccc3c(C)cc(=O)oc3c2)O[C@H](CO)[C@@H](O[C@@H]2O[C@H](CO)[C@@H](O)[C@H](O)[C@H]2NC(C)=O)[C@@H]1O.
T1 construct: single GH18 catalytic domain C1 (core 1613-1855 and 1940-1988, insertion domain 1856-1939); His-tag purified from Pichia pastoris GS115
The experiment in a line: fluorescence of released 4-methylumbelliferone. It counts as biochemical, Ostrinia furnacalis. The settings on record: pH 6.0, 20 mM sodium phosphate, 303 K, 20 min, 30.0 °C. From the text:
fluorescence of released 4-methylumbelliferone on OfChtII-C1

For the substance “OfChtII-C1 (Ostrinia furnacalis; A1877I/D1864N/D1876G/DEL1865-1874/G1863E/K1875R/N1878H)”, the Michaelis constant (Km) came out at 15.52 ± 0.98 µM, the kcat came out at 0.5498 ± 0.0108 s⁻¹ and the kcat/Km amounted to 35500 M⁻¹ s⁻¹.

As a reminder, the Km is the concentration of substrate that gives half-maximal velocity. Usually kcat stands for the number of substrate molecules converted per active site and unit of time at saturation. The term kcat/Km denotes the turnover number divided by the Michaelis constant.
